Article PMC4596688, “Structural determinants of nuclear export signal orientation in binding to exportin CRM1” (eLife, 2015)

molecular target: Full-length human CRM1 (HsCRM1), O14980; experiment: GST pull-down, SDS/PAGE band intensity; conditions: chain shown with the change; excess ScRanGTP; triplicate experiments; parent: est. 100; read off a plot
Sequence (O14980 whole entry): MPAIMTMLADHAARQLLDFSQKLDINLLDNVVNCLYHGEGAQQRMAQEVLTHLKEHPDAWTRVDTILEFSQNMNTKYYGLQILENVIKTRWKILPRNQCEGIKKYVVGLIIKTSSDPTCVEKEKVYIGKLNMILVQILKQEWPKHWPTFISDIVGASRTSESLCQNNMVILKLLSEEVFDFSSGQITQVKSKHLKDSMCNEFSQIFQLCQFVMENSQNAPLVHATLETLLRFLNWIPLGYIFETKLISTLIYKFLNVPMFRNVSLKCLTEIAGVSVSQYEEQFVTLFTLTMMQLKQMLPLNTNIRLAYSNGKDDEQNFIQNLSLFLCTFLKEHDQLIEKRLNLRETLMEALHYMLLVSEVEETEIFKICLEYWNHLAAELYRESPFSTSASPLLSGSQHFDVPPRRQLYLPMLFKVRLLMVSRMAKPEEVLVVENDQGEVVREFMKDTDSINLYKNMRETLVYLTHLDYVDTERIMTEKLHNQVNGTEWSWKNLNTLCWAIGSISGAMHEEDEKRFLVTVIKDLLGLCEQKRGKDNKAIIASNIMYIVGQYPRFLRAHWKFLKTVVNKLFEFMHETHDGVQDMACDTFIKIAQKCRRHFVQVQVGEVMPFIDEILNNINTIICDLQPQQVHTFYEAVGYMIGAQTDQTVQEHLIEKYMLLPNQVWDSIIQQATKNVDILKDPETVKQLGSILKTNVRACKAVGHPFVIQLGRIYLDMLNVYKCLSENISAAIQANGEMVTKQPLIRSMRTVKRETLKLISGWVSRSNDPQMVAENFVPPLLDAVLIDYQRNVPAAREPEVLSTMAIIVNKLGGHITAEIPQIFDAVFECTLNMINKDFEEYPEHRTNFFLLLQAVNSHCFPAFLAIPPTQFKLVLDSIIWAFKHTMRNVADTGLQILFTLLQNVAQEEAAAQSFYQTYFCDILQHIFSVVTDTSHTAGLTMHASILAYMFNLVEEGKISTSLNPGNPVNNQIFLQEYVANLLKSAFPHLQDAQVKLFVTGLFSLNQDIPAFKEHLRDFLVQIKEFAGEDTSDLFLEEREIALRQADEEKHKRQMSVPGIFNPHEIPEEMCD

Row | Binder | percent of parent
1 | GKIEELAQNFETMEISR [GST-hRio2NES-R F13I] | 150%
2 | GKIEELAQNFETMELSR [GST-hRio2NES-R F13L] | 130%
3 | GKIEELAQNFETLEFSR [GST-hRio2NES-R M11L] | 105%
4 | GKIEELAQNFETMEVSR [GST-hRio2NES-R F13V] | 140%
